Among the data in publication PMC10397247 are interaction score values, retold here.

One experiment deals with T1, 4H319-bA.
T1 chain: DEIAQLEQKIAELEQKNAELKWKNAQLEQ
Description: two-hybrid library CCNG1.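 Also: natural log of median RNA to DNA barcode read ratio; higher means stronger binding.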

For the next experiment, the target named is T2, 4H3277-bA.
T2 chain: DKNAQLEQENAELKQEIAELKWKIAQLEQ
Kind of experiment: two-hybrid library CCNG1.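 Also: natural log of median RNA to DNA barcode read ratio; higher means stronger binding.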

A further experiment deals with T3, 4H40-bA.
T3 chain: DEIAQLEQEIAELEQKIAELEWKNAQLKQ
Description: two-hybrid library CCNG1.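 Also: natural log of median RNA to DNA barcode read ratio; higher means stronger binding.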

The target in a further experiment is T4, 4H741-bA.
T4 chain: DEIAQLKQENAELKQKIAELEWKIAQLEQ
Kind of experiment: two-hybrid library CCNG1.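 Also: natural log of median RNA to DNA barcode read ratio; higher means stronger binding.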

In another experiment the target is T5, 4H477-bA.
T5 chain: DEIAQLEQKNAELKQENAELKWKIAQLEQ
Description: two-hybrid library CCNG1.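 Also: natural log of median RNA to DNA barcode read ratio; higher means stronger binding.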

The target of a further experiment is T6, 4H348-bA.
T6 chain: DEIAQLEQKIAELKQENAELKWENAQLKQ
Description: two-hybrid library CCNG1.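 Also: natural log of median RNA to DNA barcode read ratio; higher means stronger binding.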

A further experiment has as its target T7, 4H492-bA.
T7 chain: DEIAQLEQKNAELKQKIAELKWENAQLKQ
Description: two-hybrid library CCNG1.

The next experiment concerns the target T8, 4H3417-AA.
T8 chain: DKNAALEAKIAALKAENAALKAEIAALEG
Kind of experiment: two-hybrid library CCmax. As to conditions: mean of both orientations.

The next experiment addresses T9, 4H391-AA.
T9 chain: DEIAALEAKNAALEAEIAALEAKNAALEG
Description: two-hybrid library CCmax. As to conditions: mean of both orientations.

In a further experiment the target is T10, 4H3628-AA.
T10 chain: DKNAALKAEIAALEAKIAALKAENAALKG
Kind of experiment: two-hybrid library CCmax.

For another experiment, the target named is T11, 4H478-AA.
T11 chain: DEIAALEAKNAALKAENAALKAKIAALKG
Description: two-hybrid library CCmax. As to conditions: mean of both orientations.

For a further experiment, the target named is T12, 4H2742-AA.
T12 chain: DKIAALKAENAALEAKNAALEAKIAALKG
Description: two-hybrid library CCmax.

A further experiment has as its target T13, 4H3029-AA.
T13 chain: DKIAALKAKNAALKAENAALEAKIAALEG
Kind of experiment: two-hybrid library CCmax. As to conditions: mean of both orientations.

Another experiment has as its target T14, 4H3666-AA.
T14 chain: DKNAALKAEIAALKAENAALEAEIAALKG
Kind of experiment: two-hybrid library CCmax. As to conditions: mean of both orientations.

The target in the next experiment is T15, 4H675-AA.
T15 chain: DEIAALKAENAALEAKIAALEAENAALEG
Description: two-hybrid library CCmax. As to conditions: mean of both orientations.

The target in a further experiment is T16, 4H971-AA.
T16 chain: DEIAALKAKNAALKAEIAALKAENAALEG
Description: two-hybrid library CCmax. As to conditions: mean of both orientations.

The target of the next experiment is T17, 4H3920-AA.
T17 chain: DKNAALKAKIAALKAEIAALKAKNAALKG
Kind of experiment: two-hybrid library CCmax. As to conditions: mean of both orientations.

The target of a further experiment is T18, 4H2991-AA.
T18 chain: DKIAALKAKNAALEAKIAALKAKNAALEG
Kind of experiment: two-hybrid library CCmax.

The next experiment addresses T19, 4H3446-AA.
T19 chain: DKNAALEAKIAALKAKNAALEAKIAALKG
Description: two-hybrid library CCmax. To be noted: mean of both orientations.

In another experiment the target is T20, 4H428-AA.
T20 chain: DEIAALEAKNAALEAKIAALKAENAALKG
Description: two-hybrid library CCmax. As to conditions: mean of both orientations.

Another experiment deals with T21, 4H3591-AA.
T21 chain: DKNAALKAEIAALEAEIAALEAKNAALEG
Description: two-hybrid library CCmax. To be noted: mean of both orientations.

The target in the next experiment is T22, 4H3939-AA.
T22 chain: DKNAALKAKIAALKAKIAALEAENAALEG
Description: two-hybrid library CCmax. As to conditions: mean of both orientations.

Another experiment has as its target T23, 4H656-AA.
T23 chain: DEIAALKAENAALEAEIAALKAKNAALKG
Kind of experiment: two-hybrid library CCmax. As to conditions: mean of both orientations.

In the next experiment the target is T24, 4H497-AA.
T24 chain: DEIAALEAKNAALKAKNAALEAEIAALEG
Kind of experiment: two-hybrid library CCmax. As to conditions: mean of both orientations.

The target in a further experiment is T25, 4H3066-AA.
T25 chain: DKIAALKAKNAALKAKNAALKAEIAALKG
Kind of experiment: two-hybrid library CCmax. To be noted: mean of both orientations.

A further experiment deals with T26, 4H3709-AA.
T26 chain: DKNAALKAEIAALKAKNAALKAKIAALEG
Kind of experiment: two-hybrid library CCmax. As to conditions: mean of both orientations.

The next experiment has as its target T27, 4H2948-AA.
T27 chain: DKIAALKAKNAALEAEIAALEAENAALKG
Kind of experiment: two-hybrid library CCmax. As to conditions: mean of both orientations.

The next experiment concerns the target T28, 4H3102-AA.
T28 chain: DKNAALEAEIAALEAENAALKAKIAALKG
Kind of experiment: two-hybrid library CCmax. As to conditions: mean of both orientations.

The target in a further experiment is T29, 4H3121-AA.
T29 chain: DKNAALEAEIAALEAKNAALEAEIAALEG
Description: two-hybrid library CCmax. As to conditions: mean of both orientations.

In the next experiment the target is T30, 4H3625-AA.
T30 chain: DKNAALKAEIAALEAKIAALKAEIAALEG
Kind of experiment: two-hybrid library CCmax. As to conditions: mean of both orientations.

The target in the next experiment is T31, 4H662-AA.
T31 chain: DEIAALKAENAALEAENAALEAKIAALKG
Kind of experiment: two-hybrid library CCmax. As to conditions: mean of both orientations.

Another experiment deals with T32, 4H3605-AA.
T32 chain: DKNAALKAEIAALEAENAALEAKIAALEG
Description: two-hybrid library CCmax. As to conditions: mean of both orientations.

Another experiment addresses T33, 4H369-AA.
T33 chain: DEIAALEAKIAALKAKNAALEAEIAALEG
Kind of experiment: two-hybrid library CCmax. As to conditions: mean of both orientations.

A further experiment has as its target T34, 4H327-AA.
T34 chain: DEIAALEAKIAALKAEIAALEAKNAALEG
Description: two-hybrid library CCmax.

For a further experiment, the target named is T35, 4H55-AA.
T35 chain: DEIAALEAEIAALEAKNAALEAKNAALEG
Kind of experiment: two-hybrid library CCmax. As to conditions: mean of both orientations.

The next experiment addresses T36, 4H481-AA.
T36 chain: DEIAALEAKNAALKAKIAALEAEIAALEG
Kind of experiment: two-hybrid library CCmax. As to conditions: mean of both orientations.

The next experiment addresses T37, 4H4033-AA.
T37 chain: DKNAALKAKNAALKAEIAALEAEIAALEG
Description: two-hybrid library CCmax. As to conditions: mean of both orientations.

A further experiment concerns the target T38, 4H3664-AA.
T38 chain: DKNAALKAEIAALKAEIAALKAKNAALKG
Description: two-hybrid library CCmax. To be noted: mean of both orientations.

The target of a further experiment is T39, 4H3922-AA.
T39 chain: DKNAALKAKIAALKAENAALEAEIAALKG
Kind of experiment: two-hybrid library CCmax. To be noted: mean of both orientations.

B1: 4H319-bA (peptide)
chain: DEIAQLEQKIAELEQKNAELKWKNAQLEQ
Turning to B1, the interaction score is -0.125 with 4H319-bA; -0.964 in the experiment with 4H3277-bA; -0.44 in the experiment with 4H40-bA; -0.873 with 4H741-bA; -0.399 with 4H477-bA; -0.881 with 4H348-bA. In addition, the interaction score with 4H492-bA was -1.05.

B2: 4H2742-AA (peptide)
chain: DKIAALKAENAALEAKNAALEAKIAALKG
Consider B2, for which the interaction score was -1.41 in the experiment with 4H3417-AA; -1.21 in the experiment with 4H391-AA; -1.49 with 4H3628-AA; 1.12 with 4H478-AA; -0.3 with 4H2742-AA; 0.775 with 4H3029-AA. Further, the interaction score with 4H3666-AA is -1.97; in the experiment with 4H675-AA, -1.53; with 4H971-AA it was -1.91; in the experiment with 4H3920-AA, -1.23; with 4H2991-AA, -0.693; with 4H3446-AA, -1.39. The interaction score with 4H428-AA was -1.6; in the experiment with 4H3591-AA, -0.99; with 4H3939-AA, -1.63; with 4H656-AA, -2; with 4H497-AA it was 2.42; in the experiment with 4H3066-AA it was 1.72. Moreover, the interaction score with 4H3709-AA was -1.19; with 4H2948-AA, -0.899; with 4H3102-AA it was -1.33; in the experiment with 4H3121-AA, -1.7.

B3: 4H327-AA (peptide)
chain: DEIAALEAKIAALKAEIAALEAKNAALEG
In the case of B3, the interaction score with 4H3625-AA is 1.3; with 4H662-AA, -1.42; with 4H3605-AA it was -1.29; with 4H369-AA, -0.747; with 4H327-AA, 1.84; with 4H55-AA, -0.319. Also, the interaction score is -0.644 in the experiment with 4H481-AA, 0.297 with 4H4033-AA, 0.733 with 4H3664-AA and 0.621 in the experiment with 4H3922-AA.
